# Measured values published in patent publication US20240150440A1 (LUMEN BIOSCIENCE, published 2024).
# How the values were obtained:
# [1] = target: T1, SARS-CoV-2 spike protein on pseudotyped lentivirus (Wuhan Reference Pseudovirus) (SARS-CoV-2, UniProt P0DTC2 14-1273); experiment: cell-based or functional assay
# [2] = target: T2, recombinant SARS-CoV-2 RBD with C-terminal AviTag (SARS-CoV-2, UniProt P0DTC2 319-541); experiment: BLI, biotinylated RBD on streptavidin biosensors; OR: over-range [Cont. 2]
# [3] = target: T2, recombinant SARS-CoV-2 RBD with …; experiment: BLI, biotinylated RBD on streptavidin biosensors [Cont. 4]
# [4] = target: T2, recombinant SARS-CoV-2 RBD with …; experiment: ELISA, competition with coated ACE2-Fc for RBD [Cont. 4]
# [5] = target: T3, SARS-CoV-2 Alpha Variant RBD (SARS-CoV-2 Alpha variant); experiment: ELISA, RBD coated
# T3 construct: domain: RBD; coated on ELISA plates
# [6] = target: T4, SARS-CoV-2 Beta Variant RBD (SARS-CoV-2 Beta variant); experiment: ELISA, RBD coated
# T4 construct: domain: RBD; coated on ELISA plates
# [7] = target: T5, SARS-CoV-2 Gamma Variant RBD (SARS-CoV-2 Gamma variant); experiment: ELISA, RBD coated
# T5 construct: domain: RBD; coated on ELISA plates
# [8] = target: T1, SARS-CoV-2 spike protein on pseudotyped …; experiment: cell-based or functional assay; remark: listed apart in the source
# [9] = target: T1, SARS-CoV-2 spike protein on pseudotyped …; experiment: cell-based or functional assay; remark: listed apart in the source
# [10] = target: T2, recombinant SARS-CoV-2 RBD with …; experiment: BLI, biotinylated RBD on streptavidin biosensors; OR: over-range [Cont. 4]
# [11] = target: T2, recombinant SARS-CoV-2 RBD with …; experiment: BLI, biotinylated RBD on streptavidin biosensors [Cont. 2]
# [12] = target: T1, SARS-CoV-2 spike protein on pseudotyped …; experiment: cell-based or functional assay; remark: listed apart in the source
# [13] = target: T6, SARS-CoV-2 Delta Variant RBD (SARS-CoV-2 Delta variant); experiment: ELISA, RBD coated
# T6 construct: domain: RBD; coated on ELISA plates
# [14] = target: SARS-CoV-2 Delta Variant spike protein on pseudotyped lentivirus (SARS-CoV-2 Delta variant); experiment: cell-based or functional assay
# [15] = target: T1, SARS-CoV-2 spike protein on pseudotyped …; experiment: cell-based or functional assay; remark: listed apart in the source
# [16] = target: T2, recombinant SARS-CoV-2 RBD with …; experiment: BLI, biotinylated RBD on streptavidin biosensors; OR: over-range [Cont. 1]
# [17] = target: T1, SARS-CoV-2 spike protein on pseudotyped …; experiment: cell-based or functional assay; remark: listed apart in the source
# [18] = target: T2, recombinant SARS-CoV-2 RBD with …; experiment: ELISA, competition with coated ACE2-Fc for RBD [Cont. 1]
# [19] = target: T1, SARS-CoV-2 spike protein on pseudotyped …; experiment: cell-based or functional assay; remark: listed apart in the source
# [20] = target: SARS-CoV-2 Gamma Variant spike protein on pseudotyped lentivirus (SARS-CoV-2 Gamma variant); experiment: cell-based or functional assay
binder,measurement,setting,value
"PP814 MBP-R2E-F4-H6 (VHH, Form: Monomer) VHH: QVQLVESGGGLVQPGGSLRLSCAASGETFSSNAMHWFRQAPGKGREFVAAITSGGNDNYSDSVKGRFTISRDNAKNTVYLQMNSLKPEDTAVYYCNAPATEDTSHYPRNYWGQGTQVTVSS",infectivity % under 10 ug/mL VHH treatment,[1],84.7%
same,Kd,[2],~1600 nM
"PP836 MBP-R5D-A1-H6 (VHH, Form: Monomer) VHH: QVQLVESGGGLVQPGGSLRLSCAASGSISSYNAMHWFRQAPGKQREWVAGLTSSGSDGYVDSVKGRFTISRDNAKNTVYLQMNSLKPEDTAVYYCNAFSYHTYSRYDFWGQGTQVTVSS",infectivity % under 10 ug/mL VHH treatment,[1],55%
same,Kd,[3],527 nM
same,IC50,[4],6.2 nM
"PP833 MBP-R5C-F6-H6 (VHH, Form: Monomer) VHH: QVQLVESGGGLVQPGGSLRLSCAASGQTNSILAMHWYRQAPGKQREAVATITSGSNSTYADSVKGRFTISRDNAKNTVYLQMNSLKPEDTAVYYCAARNGKLSPKANQRLYWGQGTQVTVSS",infectivity % under 10 ug/mL VHH treatment,[1],86.2%
same,Kd,[3],100 nM
"PP815 MBP-R5A-A1-H6 (VHH, Form: Monomer) VHH: QVQLVESGGGLVQPGGSLRLSCAASGAELSYTAIHWFRQAPGKQREFVATINSGGSSYYADSVKGRFTISRDNAKNTVYLQMNSLKPEDTAVYYCTALLDSTYDYWGQGTQVTVSS",infectivity % under 10 ug/mL VHH treatment,[1],84.4%
same,Kd,[2],~2700 nM
"PP1113 MBP-5HVZ-PAPA-RN-29-H6 (VHH, Form: Dimer) VHH: QVQLVESGGGLVQPGGSLRLSCAASGYILSENLTAWFRQAPGKAREVVATVTSGDYTNYDDSVKGRFTISRDNAKNTVYLQMNSLKPEDTAVYYCAAGTSDWEVKWSHWGQGTQVTVSS",EC50,[5],0.72 nM
same,EC50,[6],5.64 nM
same,EC50,[7],3.37 nM
same,infectivity % under 10 ug/mL VHH treatment,[1],6.25%
same,Pseudovirus neutralization IC50,[8],7.09 nM
same,Pseudovirus inhibition IC50 [Cont. 9],[9],9.38 nM
"PP837 MBP-R5D-B2-H6 (VHH, Form: Monomer) VHH: QVQLVESGGGLVQPGGSLRLSCAASGSIWSIAFMSWYRQAPGKGREWVAAITTGNDEAYADSVKGRFTISRDNAKNTVYLQMNSLKPEDTAVYYCAANTYERTPDGRTFSYWGQGTQVTVSS",infectivity % under 10 ug/mL VHH treatment,[1],77.6%
same,IC50,[4],3.7 nM
same,Kd,[10],~2350 nM
"PP821 MBP-R5A-D6-H6 (VHH, Form: Monomer) VHH: QVQLVESGGGLVQPGGSLRLSCAASGNDWYINSAHWYRQAPGKEREFVASVSRGGSNNYRDSVKGRFTISRDNAKNTVYLQMNSLKPEDTAVYYCAALLETSSGDYTYWGQGTQVTVSS",infectivity % under 10 ug/mL VHH treatment,[1],76.7%
same,Kd,[11],100 nM
"PP831 MBP-R5C-F3-H6 (VHH, Form: Monomer) VHH: QVQLVESGGGLVQPGGSLRLSCAASGTIPSINYTAWYRQAPGKQRELVASLTSGDNRYYTDSVKGRFTISRDNAKNTVYLQMNSLKPEDTAVYYCNAKTVGSSYRDSYNYWGQGTQVTVSS",infectivity % under 10 ug/mL VHH treatment,[1],81.2%
same,IC50,[4],151 nM
same,Kd,[10],~5370 nM
"PP1140 MBP-4B0F-PAPA-R5d-B6-H6 (VHH, Form: Heptamer) VHH: QVQLVESGGGLVQPGGSLRLSCAASGRILAANIVHWYRQAPGKEREGVAGITSGGGSYYADSVKGRFTISRDNAKNTVYLQMNSLKPEDTAVYYCNALGLGQSSLYRSADPYDSWGQGTQVTVSS",infectivity % under 10 ug/mL VHH treatment,[1],2.47%
same,Pseudovirus neutralization IC50,[8],2.07 nM
same,Pseudovirus inhibition IC50 [Cont. 5],[12],7.04 nM
"PP1150 MBP-5HVZ-PAPA-R5b-G1-H6 (VHH, Form: Dimer) VHH: QVQLVESGGGLVQPGGSLRLSCAASGSIGQIVLVHWFRQAPGKQRELVAGITSPSSTYYADSVKGRFTISRDNAKNTVYLQMNSLKPEDTAVYYCNTELEGKTQGFTGKTVWYDYWGQGTQVTVSS",EC50,[5],20.1 nM
same,EC50,[13],0.86 nM
same,infectivity % under 10 ug/mL VHH treatment,[1],2.31%
same,Pseudovirus neutralization IC50,[8],2.72 nM
same,Pseudovirus neutralization IC50,[14],0.43 nM
same,Pseudovirus inhibition IC50 [Cont. 3],[15],2.33 nM
MBP-5HVZ-R5B-G1-H6 (VHH) VHH: QVQLVESGGGLVQPGGSLRLSCAASGSIGQIVLVHWFRQAPGKQRELVAGITSPSSTYYADSVKGRFTISRDNAKNTVYLQMNSLKPEDTAVYYCNTELEGKTQGFTGKTVWYDYWGQGTQVTVSS,Pseudovirus inhibition IC50 [Cont. 3],[15],5.82 nM
"PP811 MBP-R2D-D3-H6 (VHH, Form: Monomer) VHH: QVQLVESGGGLVQPGGSLRLSCAASGHIFSINNAAWVRQAPGKSREGVATIHSGGGTYYSDSVKGRFTISRDNAKNTVYLQMNSLKPEDTAVYYCNAEVSTGAGSRGRVSDVYWGQGTQVTVSS",infectivity % under 10 ug/mL VHH treatment,[1],75.9%
same,Kd,[16],~27 µM
dimeric VHH (VHH-5HVZ-MBP) R2C-F6 (VHH) VHH: QVQLVESGGGLVQPGGSLRLSCAASGRILAANIVHWYRQAPGKEREGVAGITTGGSNYYSDSVKGRFTISRDNAKNTVYLQMNSLKPEDTAVYYCNALGLGSASGSYESWGQGTQVTVSS,Pseudovirus inhibition IC50 [Cont. 1],[17],92.4 nM
same,IC50,[18],6.5 nM
same,Kd,[16],~0.00096 µM
PP1097 MBP-5HVZ-PAPA-RN-5-H6 (VHH) VHH: QVQLVESGGGLVQPGGSLRLSCAASGSSFRILAMHWYRQAPGKNREWVAVITSNGNTYYADSVKGRFTISRDNAKNTVYLQMNSLKPEDTAVYYCNADTLDLDDGATYNYWGQGTQVTVSS,EC50,[5],0.3 nM
same,EC50,[6],95.4 nM
same,EC50,[7],58.6 nM
same,EC50,[13],244 nM
same,infectivity % under 10 ug/mL VHH treatment,[1],18.6%
same,Pseudovirus neutralization IC50,[8],27.3 nM
same,Pseudovirus inhibition IC50 [Cont. 8],[19],54.5 nM
"PP817 MBP-R5A-B3-H6 (VHH, Form: Monomer) VHH: QVQLVESGGGLVQPGGSLRLSCAASGQLDRSNAMAWFRQAPGKGREWVASITSGASTQYADSVKGRFTISRDNAKNTVYLQMNSLKPEDTAVYYCAADRYRAIQRTQYSWGQGTQVTVSS",infectivity % under 10 ug/mL VHH treatment,[1],80%
same,Kd,[2],~5170 nM
"PP810 MBP-R2D-A6-H6 (VHH, Form: Monomer) VHH: QVQLVESGGGLVQPGGSLRLSCAASGSGASIGAMHWFRQAPGKGREWVASITSAGNTYYGDSVKGRFTISRDNAKNTVYLQMNSLKPEDTAVYYCNALAGANYESQWEEYNYWGQGTQVTVSS",infectivity % under 10 ug/mL VHH treatment,[1],77.5%
same,IC50,[18],0.1 nM
same,Kd,[16],~4.6 µM
"PP834 MBP-R5C-G2-H6 (VHH, Form: Monomer) VHH: QVQLVESGGGLVQPGGSLRLSCAASGSATSINRMAWVRQAPGKEREWVAVIDSGGYTYYADSVKGRFTISRDNAKNTVYLQMNSLKPEDTAVYYCNAVPVTTDKTPMYQYWGQGTQVTVSS",infectivity % under 10 ug/mL VHH treatment,[1],89.2%
same,IC50,[4],184 nM
same,Kd,[10],~2120 nM
"MBP-5HVZ-R5C-G2-H6 (VHH, dimer) VHH: QVQLVESGGGLVQPGGSLRLSCAASGSATSINRMAWVRQAPGKEREWVAVIDSGGYTYYADSVKGRFTISRDNAKNTVYLQMNSLKPEDTAVYYCNAVPVTTDKTPMYQYWGQGTQVTVSS",Kd,[3],29.6 nM
same,IC50,[4],121 nM
"PP1107 MBP-5HVZ-PAPA-RN-22-H6 (VHH, Form: Dimer) VHH: QVQLVESGGGLVQPGGSLRLSCAASGSISEINLLHWFRQAPGKQREWVATMTSGGSTDYADSVKGRFTISRDNAKNTVYLQMNSLKPEDTAVYYCAADEFTKYGHGRYWGQGTQVTVSS",EC50,[5],0.28 nM
same,EC50,[6],0.25 nM
same,EC50,[7],0.18 nM
same,infectivity % under 10 ug/mL VHH treatment,[1],34.3%
same,Pseudovirus neutralization IC50,[8],32.9 nM
same,Pseudovirus neutralization IC50,[20],0.649 nM
same,Pseudovirus inhibition IC50 [Cont. 9],[9],110 nM
